Test results: publication PMC5693750 (Journal of molecular biology, 2017)

B2: Chp2 (full-length, wild type) (natural protein, S. pombe, UniProt O42934 1-380, looked up)
chain: MVKSADLDLMNSIISESDENFSPPPFTVEEAENSINNKSSTASLESPQNGSWHPSLYGLSVPEKTHIQNSLDLYSHGNSGSQKTHNVSFSCEIRKVKSSKLSPISNMEDSEDKKEEDESSSYKNEFKSSSSASVSSNFEKTSGSDDHNSQSPVPLNEGFEYIASSGSEDKNSDEEFAVEMILDSRMKKDGSGFQYYLKWEGYDDPSDNTWNDEEDCAGCLELIDAYWESRGGKPDLSSLIRLTRSRARSSNEASYVEKDESSNSDDSISYKRRRSRNAANRITDYVDSDLSESSMKEKQSKIEKYMKSDKSSKNFKPPFQKKSWEDLVDCVKTVQQLDNGKLIAKIKWKNGYVSTHDNIIIHQKCPLKIIEYYEAHIKFT
B3: Swi6 (full-length, wild type) (natural protein, S. pombe, UniProt P40381 1-328, looked up)
chain: MKKGGVRSYRRSSTSKRSVIDDDSEPELPSMTKEAIASHKADSGSSDNEVESDHESKSSSKKLKENAKEEEGGEEEEEDEYVVEKVLKHRMARKGGGYEYLLKWEGYDDPSDNTWSSEADCSGCKQLIEAYWNEHGGRPEPSKRKRTARPKKPEAKEPSPKSRKTDEDKHDKDSNEKIEDVNEKTIKFADKSQEEFNENGPPSGQPNGHIESDNESKSPSQKESNESEDIQIAETPSNVTPKKKPSPEVPKLPDNRELTVKQVENYDSWEDLVSSIDTIERKDDGTLEIYLTWKNGAISHHPSTITNKKCPQKMLQFYESHLTFRENE

Experiments:
[1] = target: H3Kc9me3 mononucleosome (Xenopus laevis); test: fluorescence polarisation
[2] = target: H3Kc9me3 mononucleosome (Xenopus laevis); test: AUC
[3] = target: T1, Swi6 chromoshadow domain (CSD) (S. pombe, UniProt P40381 261-328); test: NMR titration
T1 sequence: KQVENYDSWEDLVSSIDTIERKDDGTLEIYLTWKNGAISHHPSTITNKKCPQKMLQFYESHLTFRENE

[4] = target: the molecule itself; test: AUC
[5] = target: H3K9me3 tail peptide; test: fluorescence polarisation
[6] = target: Unmethylated H3 tail peptide; test: fluorescence polarisation
[7] = target: the molecule itself; test: AUC; remark: listed apart in the source
[8] = target: B3; test: fluorescence polarisation
[9] = target: B2; test: fluorescence polarisation

## Chp2 I370E (from UniProt O42934 1-380) (natural protein)
[1]
  fold weaker Kd than wild-type Chp2: 3 fold

## Swi6 (full-length, wild type) (from UniProt P40381 1-328) (natural protein)
[1]
  Kd: 130 nM

## Swi6 L315D (from UniProt P40381 1-328) (natural protein)
[1]
  fold weaker Kd than wild-type Swi6: 8.5 fold

## Chp2 (full-length, wild type) (from UniProt O42934 1-380) (natural protein)
[1]
  Kd: 430 nM
[2]
  stoichiometry N: 4

B1: Clr3 peptide (peptide)
peptide: RAVTQYLLHLLQKARPTSQ
[3]
  Kd: 68 ± 15 µM
  Kd fitted for residue E280: 62.5 ± 15.4
  Kd fitted for residue H321: 51.9 ± 7.84

## B2
[4]
  Kd: 183 µM
[5]
  Kd: 1850 nM
[6]
  fold weaker binding than to the H3K9me3 tail peptide: > 10 fold

## B3
[7]
  binding result: binds
[5]
  fold weaker binding than Chp2 to the same peptide: 5.5 fold
  fold weaker binding than Swi6 to H3Kc9me3 nucleosomes: 77 fold
[6]
  fold weaker binding than to the H3K9me3 tail peptide: > 10 fold

B4: Sgo1 peptide (peptide)
peptide: EKAKTSNVCVCIPCKSAEQ
[8]
  Kd: 6.6 ± 2.1 µM
[9]
  Kd: 58.5 µM
